Assay results published in US20140087995A1 (published 2014).
Numbered stars: 1 amine (or outer) side, 2 acyl side, 3 side chain; on linkers, the order of the positions; unused ones are H or OH. Bridge positions count the residues as written; N and C are the ends. Square brackets hold non-standard residues; d marks the D form. Side chains are listed from the residue outwards. Ends that are not written are not given here. * marks the point of attachment. C20 diacid = O=C(O)CCCCCCCCCCCCCCCCCCC(=O)*; γGlu = O=C(O)[C@H](CCC(=O)[*:2])N[*:1]

T1: human calcitonin receptor (human, UniProt P30988 25-474)
T1 sequence (looked up): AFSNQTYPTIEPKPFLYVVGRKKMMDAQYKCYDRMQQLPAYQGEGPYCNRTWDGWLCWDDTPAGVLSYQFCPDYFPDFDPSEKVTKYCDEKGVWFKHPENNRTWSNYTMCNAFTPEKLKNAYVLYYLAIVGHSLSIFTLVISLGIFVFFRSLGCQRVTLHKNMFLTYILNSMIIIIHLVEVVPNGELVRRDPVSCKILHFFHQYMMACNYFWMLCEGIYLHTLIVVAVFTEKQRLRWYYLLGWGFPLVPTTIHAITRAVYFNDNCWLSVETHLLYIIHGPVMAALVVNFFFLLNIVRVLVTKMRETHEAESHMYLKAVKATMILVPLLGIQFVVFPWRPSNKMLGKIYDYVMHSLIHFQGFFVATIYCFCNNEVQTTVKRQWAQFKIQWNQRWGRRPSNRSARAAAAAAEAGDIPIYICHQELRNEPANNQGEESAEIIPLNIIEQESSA

T2: human amylin 3(a) receptor (human calcitonin receptor + RAMP-3) (human, UniProt P30988 25-474; O60896 24-148, limits assumed)
T2 sequence (looked up) 1: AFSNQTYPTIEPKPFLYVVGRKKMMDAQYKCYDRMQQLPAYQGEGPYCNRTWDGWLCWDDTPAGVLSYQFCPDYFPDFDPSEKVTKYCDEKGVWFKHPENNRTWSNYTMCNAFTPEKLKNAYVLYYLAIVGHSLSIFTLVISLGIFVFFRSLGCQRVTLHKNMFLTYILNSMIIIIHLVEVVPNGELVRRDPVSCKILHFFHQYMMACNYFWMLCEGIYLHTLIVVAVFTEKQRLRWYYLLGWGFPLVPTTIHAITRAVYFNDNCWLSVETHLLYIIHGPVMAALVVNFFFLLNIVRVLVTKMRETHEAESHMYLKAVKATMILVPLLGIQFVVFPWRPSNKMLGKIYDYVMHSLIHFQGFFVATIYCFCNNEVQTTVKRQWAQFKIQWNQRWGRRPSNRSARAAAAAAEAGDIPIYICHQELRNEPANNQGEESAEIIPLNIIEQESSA
T2 sequence (looked up) 2: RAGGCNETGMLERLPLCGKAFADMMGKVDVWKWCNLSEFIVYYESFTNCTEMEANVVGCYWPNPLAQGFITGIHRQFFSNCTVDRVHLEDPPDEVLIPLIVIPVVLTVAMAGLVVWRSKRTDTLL

T3: human amylin 3(a) receptor (human calcitonin receptor co-expressed with RAMP-3) (human, UniProt P30988 25-474; O60896 24-148, limits assumed)
T3 sequence (looked up) 1: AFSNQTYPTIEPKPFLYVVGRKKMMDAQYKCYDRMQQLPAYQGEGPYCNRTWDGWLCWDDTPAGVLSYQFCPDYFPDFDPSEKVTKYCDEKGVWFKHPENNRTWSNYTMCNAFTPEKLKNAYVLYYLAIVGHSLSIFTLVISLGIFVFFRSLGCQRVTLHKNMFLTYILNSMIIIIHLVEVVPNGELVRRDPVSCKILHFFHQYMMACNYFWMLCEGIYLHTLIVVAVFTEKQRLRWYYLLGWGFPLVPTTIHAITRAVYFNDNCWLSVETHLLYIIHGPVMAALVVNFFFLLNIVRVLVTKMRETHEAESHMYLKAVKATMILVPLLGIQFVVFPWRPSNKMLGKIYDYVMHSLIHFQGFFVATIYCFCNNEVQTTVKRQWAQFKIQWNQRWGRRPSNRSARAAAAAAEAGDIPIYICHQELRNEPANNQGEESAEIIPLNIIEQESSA
T3 sequence (looked up) 2: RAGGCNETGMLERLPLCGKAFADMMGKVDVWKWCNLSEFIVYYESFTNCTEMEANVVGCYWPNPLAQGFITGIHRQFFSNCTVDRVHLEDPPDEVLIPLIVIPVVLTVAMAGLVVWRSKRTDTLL

T4: human calcitonin receptor (human, UniProt P30988 25-474)
T4 sequence (looked up): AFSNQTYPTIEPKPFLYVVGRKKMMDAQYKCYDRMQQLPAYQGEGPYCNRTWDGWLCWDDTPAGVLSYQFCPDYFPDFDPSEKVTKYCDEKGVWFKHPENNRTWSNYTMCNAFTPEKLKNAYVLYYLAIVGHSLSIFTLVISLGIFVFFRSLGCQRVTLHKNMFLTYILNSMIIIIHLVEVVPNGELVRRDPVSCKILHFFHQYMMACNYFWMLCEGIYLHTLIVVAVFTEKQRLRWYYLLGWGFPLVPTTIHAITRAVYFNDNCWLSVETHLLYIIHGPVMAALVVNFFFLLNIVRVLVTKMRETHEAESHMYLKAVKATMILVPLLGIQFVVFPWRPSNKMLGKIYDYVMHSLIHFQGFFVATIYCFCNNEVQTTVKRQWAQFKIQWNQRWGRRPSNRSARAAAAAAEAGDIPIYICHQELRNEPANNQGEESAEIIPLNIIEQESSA

T5: human calcitonin receptor (human, UniProt P30988 25-474)
T5 sequence (looked up): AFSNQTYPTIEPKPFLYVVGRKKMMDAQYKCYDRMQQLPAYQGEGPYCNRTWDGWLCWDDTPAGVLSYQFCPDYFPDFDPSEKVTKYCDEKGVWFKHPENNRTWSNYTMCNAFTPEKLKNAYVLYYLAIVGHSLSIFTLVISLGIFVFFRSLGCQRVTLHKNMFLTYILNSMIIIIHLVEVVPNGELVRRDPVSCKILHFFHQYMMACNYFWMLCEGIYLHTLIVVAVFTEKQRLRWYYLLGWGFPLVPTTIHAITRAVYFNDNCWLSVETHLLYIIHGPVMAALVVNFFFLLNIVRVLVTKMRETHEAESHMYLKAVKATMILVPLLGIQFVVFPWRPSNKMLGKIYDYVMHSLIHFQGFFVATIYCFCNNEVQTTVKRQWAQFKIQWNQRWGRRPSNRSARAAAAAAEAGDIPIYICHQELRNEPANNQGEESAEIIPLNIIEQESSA

T6: human amylin 3(a) receptor (human calcitonin receptor co-expressed with RAMP-3) (human, UniProt P30988 25-474; O60896 24-148, limits assumed)
T6 sequence (looked up) 1: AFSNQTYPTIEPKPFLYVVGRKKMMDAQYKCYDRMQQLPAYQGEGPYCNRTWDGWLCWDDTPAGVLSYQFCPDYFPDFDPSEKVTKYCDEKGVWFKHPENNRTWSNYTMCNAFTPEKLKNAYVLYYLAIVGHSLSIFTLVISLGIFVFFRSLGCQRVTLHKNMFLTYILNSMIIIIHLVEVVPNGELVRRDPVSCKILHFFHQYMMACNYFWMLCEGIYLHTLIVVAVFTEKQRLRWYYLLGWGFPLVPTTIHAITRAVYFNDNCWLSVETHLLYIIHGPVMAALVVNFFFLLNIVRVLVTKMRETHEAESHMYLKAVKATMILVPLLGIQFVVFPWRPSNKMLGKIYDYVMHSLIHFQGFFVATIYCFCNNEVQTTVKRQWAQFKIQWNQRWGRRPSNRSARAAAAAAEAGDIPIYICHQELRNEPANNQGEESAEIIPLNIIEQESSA
T6 sequence (looked up) 2: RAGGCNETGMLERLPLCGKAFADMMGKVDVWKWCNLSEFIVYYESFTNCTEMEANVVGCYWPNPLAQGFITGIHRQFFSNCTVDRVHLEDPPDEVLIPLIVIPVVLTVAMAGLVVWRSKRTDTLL


How the values were obtained:
[1] = target: T1, human calcitonin receptor; assay: cell-based or functional assay
[2] = target: T2, human amylin 3(a) receptor (human …); assay: cell-based or functional assay
[3] = target: T2, human amylin 3(a) receptor (human …); assay: SPA competition binding, membranes of BHK cells with human calcitonin receptor + RAMP-3, displacement of 125I-rat amylin (Assay V)
Method: (§1) The binding assay was performed using scintillation proximity assay (SPA) beads (RPNQ0001) from PerkinElmer and cell membranes from the Amylin 3(a)/CRE-luc cells (as described in Assay (II)) were used. Membranes were prepared in the following way; the cells were rinsed with PBS and incubated with Versene for approximately 5 min before harvesting. The cells were flushed with PBS and the cell-suspension was centrifuged for 5 min at 1000 rpm. Cells were homogenized (ultrathurrax) in a buffer containing 20 mM Na-HEPES and 10 mM EDTA (pH 7.4) and centrifuged at 20.000 rpm for 15 min. The resulting pellet was resuspended, homogenized and centrifuged (20.000 rpm, 15 min) in a buffer containing 20 mM Na-HEPES and 0.1 mM EDTA (pH 7.4, buffer 2). The resulting pellet was resuspended in buffer 2 and protein concentration was measured (BCA protein Assay, Pierce). The homogenate was kept cold during the whole procedure. The membranes were kept at −80° C. until use. The assay was performed in a 384 well Optiplate (PerkinElmer) in a total volume of 40 ul. Membranes were mixed with SPA beads. Final concentration of membranes 35 ng/μL final and SPA beads was 0.05 mg/well. Test-compounds were dissolved in DMSO and further diluted in assay buffer (50 mM Hepes, pH 7.4, 1 mM CaCl2, 5 mM MgCl₂, 0.1% OA and 0.02% Tween20). […] The final mixture was incubated with shaking at 400 rpm for 120 min at 25° C. prior to centrifugation (1500 rpm, 10 min). Samples were analyzed on TopCounter™ (Packard). The IC₅₀ was calculated using (one site binding competition analysis) GraphPad Prism5 as a measure of receptor affinity.

[4] = target: T3, human amylin 3(a) receptor (human …); assay: cell-based or functional assay
[5] = target: T4, human calcitonin receptor; assay: cell-based or functional assay; remark: listed apart in the source
[6] = target: T5, human calcitonin receptor; assay: cell-based or functional assay; remark: listed apart in the source
[7] = target: T6, human amylin 3(a) receptor (human …); assay: cell-based or functional assay; remark: listed apart in the source
[8] = target: T6, human amylin 3(a) receptor (human …); assay: SPA competition binding (Assay V): displacement of 125I-rat amylin from membranes of BHK cells with human calcitonin receptor + RAMP-3
Method: as §1

| Binder | hCTR funct. EC50 (CRE luciferase reporter, BHK cells) [6] [nM] | hAmylin-R funct. EC50 (CRE luciferase reporter, BHK cells) [7] [pM] | IC50 [8] [nM] | further results |
| --- | --- | --- | --- | --- |
| {C20 diacid-γGlu}-KCNTATCATQRLAEFLRHSSPNFGAILPSTNVGSETY-NH2 (disulfide 2-7, also called compound 33) |  |  |  | Ratio hCT/hAmylin funct. [1]: 2.2; hAmylin-R funct. EC50 (pM) [2]: 243 pM; IC50 [3]: 0.915 nM |
| K([γGlu-C20 diacid])CNTATCATQRLADFLRHSSPNFGAIPSSTNVGPETY-NH2 (disulfide 2-7 (inferred)) |  |  |  | Ratio hCT/hAmylin funct. [4]: 3.9; hCTR funct. EC50 (pM) [5]: 1120 pM |
| K([γGlu-C20 diacid])CNTATCATQRLADFLRHSSPNFGAIPSSTNVGPRTY-NH2 (disulfide 2-7; N-terminus assumed; SMILES CC[C@H](C)[C@H](NC(=O)[C@H](C)NC(=O)CNC(=O)[C@H](Cc1ccccc1)NC(=O)[C@H](CC(N)=O)NC(=O)[C@@H]1CCCN1C(=O)[C@H](CO)NC(=O)[C@H](CO)NC(=O)[C@H](Cc1c[nH]cn1)NC(=O)[C@H](CCCNC(=N)N)NC(=O)[C@H](CC(C)C)NC(=O)[C@H](Cc1ccccc1)NC(=O)[C@H](CC(=O)O)NC(=O)[C@H](C)NC(=O)[C@H](CC(C)C)NC(=O)[C@H](CCCNC(=N)N)NC(=O)[C@H](CCC(N)=O)NC(=O)[C@@H](NC(=O)[C@H](C)NC(=O)[C@@H]1CSSC[C@H](NC(=O)[C@@H](N)CCCCNC(=O)CC[C@H](NC(=O)CCCCCCCCCCCCCCCCCCC(=O)O)C(=O)O)C(=O)N[C@@H](CC(N)=O)C(=O)N[C@@H]([C@@H](C)O)C(=O)N[C@@H](C)C(=O)N[C@@H]([C@@H](C)O)C(=O)N1)[C@@H](C)O)C(=O)N1CCC[C@H]1C(=O)N[C@@H](CO)C(=O)N[C@@H](CO)C(=O)N[C@H](C(=O)N[C@@H](CC(N)=O)C(=O)N[C@H](C(=O)NCC(=O)N1CCC[C@H]1C(=O)N[C@@H](CCCNC(=N)N)C(=O)N[C@H](C(=O)N[C@@H](Cc1ccc(O)cc1)C(N)=O)[C@@H](C)O)C(C)C)[C@@H](C)O) | 3.64 | 146 | 0.281 | Ratio hCT/hAmylin funct. (hCTR EC50 over hAmylin-R EC50) [7]: 24.9 |
| K([γGlu-γGlu-C20 diacid])CNTATCATQRLA[dD]FLRHSSPNFGAIPSSTNVGSRTY-NH2 (disulfide 2-7; N-terminus assumed; SMILES CC[C@H](C)[C@H](NC(=O)[C@H](C)NC(=O)CNC(=O)[C@H](Cc1ccccc1)NC(=O)[C@H](CC(N)=O)NC(=O)[C@@H]1CCCN1C(=O)[C@H](CO)NC(=O)[C@H](CO)NC(=O)[C@H](Cc1c[nH]cn1)NC(=O)[C@H](CCCNC(=N)N)NC(=O)[C@H](CC(C)C)NC(=O)[C@H](Cc1ccccc1)NC(=O)[C@@H](CC(=O)O)NC(=O)[C@H](C)NC(=O)[C@H](CC(C)C)NC(=O)[C@H](CCCNC(=N)N)NC(=O)[C@H](CCC(N)=O)NC(=O)[C@@H](NC(=O)[C@H](C)NC(=O)[C@@H]1CSSC[C@H](NC(=O)[C@@H](N)CCCCNC(=O)CC[C@H](NC(=O)CC[C@H](NC(=O)CCCCCCCCCCCCCCCCCCC(=O)O)C(=O)O)C(=O)O)C(=O)N[C@@H](CC(N)=O)C(=O)N[C@@H]([C@@H](C)O)C(=O)N[C@@H](C)C(=O)N[C@@H]([C@@H](C)O)C(=O)N1)[C@@H](C)O)C(=O)N1CCC[C@H]1C(=O)N[C@@H](CO)C(=O)N[C@@H](CO)C(=O)N[C@H](C(=O)N[C@@H](CC(N)=O)C(=O)N[C@H](C(=O)NCC(=O)N[C@@H](CO)C(=O)N[C@@H](CCCNC(=N)N)C(=O)N[C@H](C(=O)N[C@@H](Cc1ccc(O)cc1)C(N)=O)[C@@H](C)O)C(C)C)[C@@H](C)O) | 100 | 383 | 0.365 |  |
